Measurements: patent US20150344570A1 (published 2015)

What was measured:
[1] = target: FcγRIIIa extracellular domain with C-terminal His tag (human, UniProt P08637 17-208); assay: SPR (Biacore), relative binding activity; GpH7-A5/GpH7-B3/GpL16-k0 = 100
[2] = target: T1, FcγRIIa R extracellular domain with C-terminal His tag (human, UniProt P12318 34-217); assay: SPR (Biacore); ratio KD for FcγRIIb / KD for FcγRIIa R
T1 construct: extracellular domain; Soluble receptor, R131 allotype; also called FcgRIIa R; FcgRIIaR; not shown: His tag at the C terminus
T1 sequence (looked up): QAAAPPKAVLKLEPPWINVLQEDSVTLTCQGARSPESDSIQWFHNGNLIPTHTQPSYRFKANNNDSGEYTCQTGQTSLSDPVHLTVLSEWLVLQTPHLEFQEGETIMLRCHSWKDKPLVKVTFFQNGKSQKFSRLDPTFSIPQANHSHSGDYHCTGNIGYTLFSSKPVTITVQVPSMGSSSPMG
Method: (§1) These antibodies were assessed for the binding activity to each FcγR according to the method described in Reference Example 2.
(§2) Analysis of interaction between objective antibody and the FcγR was carried out using Biacore T100 (GE Healthcare). HBS-EP+ (GE Healthcare) was used as the running buffer, and the measurement temperature was set to 25° C. Chips produced by immobilizing the antigen peptide by the amine coupling method to a Series S Sencor Chip CM5 (GE Healthcare), or alternatively, chips produced by allowing preliminarily biotinylated antigen peptides to interact with and immobilize onto a Series S Sensor Chip SA (certified) (GE Healthcare) were used. Antibodies of interest were captured onto an antigen peptide-immobilized chip, and allowed to interact to each FcγR diluted with running buffer. To regenerate and repeatedly use the chip, the antibodies captured on the chip were washed off by reacting 10 mM glycine-HCl, pH 1.5.

[3] = target: T2, FcγRIIa H extracellular domain with C-terminal His tag (human, UniProt P12318 34-217); assay: SPR (Biacore); ratio KD for FcγRIIb / KD for FcγRIIa H
T2 construct: extracellular domain; Soluble receptor, H131 allotype; also called FcgRIIa H; FcgRIIaH; not shown: His tag at the C terminus
T2 sequence (looked up): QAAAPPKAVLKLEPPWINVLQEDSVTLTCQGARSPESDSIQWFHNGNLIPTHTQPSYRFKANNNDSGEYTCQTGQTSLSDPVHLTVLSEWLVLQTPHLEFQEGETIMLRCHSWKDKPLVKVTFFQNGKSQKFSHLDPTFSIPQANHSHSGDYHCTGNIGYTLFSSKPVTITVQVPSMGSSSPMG
Method: as §1, §2

Sequence of FcγRIIIa extracellular domain with C-terminal His tag (P08637 17-208): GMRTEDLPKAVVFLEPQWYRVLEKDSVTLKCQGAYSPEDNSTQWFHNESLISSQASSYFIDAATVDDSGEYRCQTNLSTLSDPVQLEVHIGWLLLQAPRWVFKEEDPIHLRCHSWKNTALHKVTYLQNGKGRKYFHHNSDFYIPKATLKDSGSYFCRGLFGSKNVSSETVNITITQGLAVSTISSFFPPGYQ

B1: GpH7-A5/GpH7-HA5/GpL16-k0 (antibody, human IgG1, kappa)
heavy 1: not shown
heavy 2: QVQLVQSGAEVKKPGASVTVSCKASGYTFTDYEMHWIRQPPGEGLEWIGAIDPKTGDTAYSESFQDRVTLTADKSTSTAYMELSSLTSEDTAVYYCTRFYSYTYWGQGTLVTVSSASTKGPSVFPLAPSSKSTSGGTAALGCLVKDYFPEPVTVSWNSGALTSGVHTFPAVLQSSGLYSLSSVVTVPSSSLGTQTYICNVNHKPSNTKVDKKVEPKSCDKTHTCPPCPAPEYLGGPSVFLFPPKPKDTLMISRTPEVTCVVVDVSHEDPEVKFNWYVDGVEVHNAKTKPREEQYNSTYRVVSVLTVLHQDWLNGKEYKCKVSNKALRAPIEKTISKAKGQPREPQVYTLPPSRDELTKNQVSLTCLVKGFYPSDIAVEWESNGQPENNYKTTPPVLDSDGSFFLYSKLTVDKSRWQQGNVFSCSVMHEALHNHYTQESLSLSP
light: DIVMTQSPLSLPVTPGEPASISCQASESLVHSNRNTYLHWYLQKPGQSPQLLIYKVSNRFSGVPDRFSGSGSGTDFTLKISRVEAEDVGVYYCSQNTHVPPTFGQGTKVEIERTVAAPSVFIFPPSDEQLKSGTASVVCLLNNFYPREAKVQWKVDNALQSGNSQESVTEQDSKDSTYSLSSTLTLSKADYEKHKVYACEVTHQGLSSPVTKSFNRGEC
notes: H2 L234Y and P329R
B1 was tested, and the “FcγRIIIa BINDING ACTIVITY” value [1] was 60%.

B2: GpH7-A5/GpH7-HA6/GpL16-k0 (antibody, human IgG1, kappa)
heavy 1: not shown
heavy 2: QVQLVQSGAEVKKPGASVTVSCKASGYTFTDYEMHWIRQPPGEGLEWIGAIDPKTGDTAYSESFQDRVTLTADKSTSTAYMELSSLTSEDTAVYYCTRFYSYTYWGQGTLVTVSSASTKGPSVFPLAPSSKSTSGGTAALGCLVKDYFPEPVTVSWNSGALTSGVHTFPAVLQSSGLYSLSSVVTVPSSSLGTQTYICNVNHKPSNTKVDKKVEPKSCDKTHTCPPCPAPELLWGPSVFLFPPKPKDTLMISRTPEVTCVVVDVSHEDPEVKFNWYVDGVEVHNAKTKPREEQYNSTYRVVSVLTVLHQDWLNGKEYKCKVSNKALRAPIEKTISKAKGQPREPQVYTLPPSRDELTKNQVSLTCLVKGFYPSDIAVEWESNGQPENNYKTTPPVLDSDGSFFLYSKLTVDKSRWQQGNVFSCSVMHEALHNHYTQESLSLSP
light: DIVMTQSPLSLPVTPGEPASISCQASESLVHSNRNTYLHWYLQKPGQSPQLLIYKVSNRFSGVPDRFSGSGSGTDFTLKISRVEAEDVGVYYCSQNTHVPPTFGQGTKVEIERTVAAPSVFIFPPSDEQLKSGTASVVCLLNNFYPREAKVQWKVDNALQSGNSQESVTEQDSKDSTYSLSSTLTLSKADYEKHKVYACEVTHQGLSSPVTKSFNRGEC
notes: H2 G236W and P329R
With B2 the “FcγRIIIa BINDING ACTIVITY” value [1] was 56%.

B3: GpH7-A48/GpH7-B3-03-20W/GpL16-k0 (antibody, human IgG1, kappa)
heavy 1: QVQLVQSGAEVKKPGASVTVSCKASGYTFTDYEMHWIRQPPGEGLEWIGAIDPKTGDTAYSESFQDRVTLTADKSTSTAYMELSSLTSEDTAVYYCTRFYSYTYWGQGTLVTVSSASTKGPSVFPLAPSSKSTSGGTAALGCLVKDYFPEPVTVSWNSGALTSGVHTFPAVLQSSGLYSLSSVVTVPSSSLGTQTYICNVNHKPSNTKVDKKVEPKSCDKTHTCPPCPAPELLGGPSVFLFPPKPKDTLMISRTPEVTCVVVDVSHEDPEVKFNWYVDGVEVHNAKTKPREEQYNSTYRVVSVLTVLHQDWLNGKEYKCKVSNKALRAPIEKTISKAKGQPREPQVYTLPPSRKELTKNQVSLTCLVKGFYPSDIAVEWESNGQPENNYKTTPPVLDSDGSFFLYSKLTVDKSRWQQGNVFSCSVMHEALHNRYTQKSLSLSP
heavy 2: not shown
light: DIVMTQSPLSLPVTPGEPASISCQASESLVHSNRNTYLHWYLQKPGQSPQLLIYKVSNRFSGVPDRFSGSGSGTDFTLKISRVEAEDVGVYYCSQNTHVPPTFGQGTKVEIERTVAAPSVFIFPPSDEQLKSGTASVVCLLNNFYPREAKVQWKVDNALQSGNSQESVTEQDSKDSTYSLSSTLTLSKADYEKHKVYACEVTHQGLSSPVTKSFNRGEC
notes: H1 P329R; H2 G236W
With B3 the “FcγRIIIa BINDING ACTIVITY” value [1] was 13%.

B4: GpH7-A48/GpH7-B3-15-02A/GpL16-k0 (antibody, human IgG1, kappa)
heavy 1: QVQLVQSGAEVKKPGASVTVSCKASGYTFTDYEMHWIRQPPGEGLEWIGAIDPKTGDTAYSESFQDRVTLTADKSTSTAYMELSSLTSEDTAVYYCTRFYSYTYWGQGTLVTVSSASTKGPSVFPLAPSSKSTSGGTAALGCLVKDYFPEPVTVSWNSGALTSGVHTFPAVLQSSGLYSLSSVVTVPSSSLGTQTYICNVNHKPSNTKVDKKVEPKSCDKTHTCPPCPAPELLGGPSVFLFPPKPKDTLMISRTPEVTCVVVDVSHEDPEVKFNWYVDGVEVHNAKTKPREEQYNSTYRVVSVLTVLHQDWLNGKEYKCKVSNKALRAPIEKTISKAKGQPREPQVYTLPPSRKELTKNQVSLTCLVKGFYPSDIAVEWESNGQPENNYKTTPPVLDSDGSFFLYSKLTVDKSRWQQGNVFSCSVMHEALHNRYTQKSLSLSP
heavy 2: not shown
light: DIVMTQSPLSLPVTPGEPASISCQASESLVHSNRNTYLHWYLQKPGQSPQLLIYKVSNRFSGVPDRFSGSGSGTDFTLKISRVEAEDVGVYYCSQNTHVPPTFGQGTKVEIERTVAAPSVFIFPPSDEQLKSGTASVVCLLNNFYPREAKVQWKVDNALQSGNSQESVTEQDSKDSTYSLSSTLTLSKADYEKHKVYACEVTHQGLSSPVTKSFNRGEC
notes: H1 P329R; H2 S298A
For B4, the “FcγRIIIa BINDING ACTIVITY” value [1] was 47%.

B5: GpH7-A5/GpH7-HA11/GpL16-k0 (antibody, human IgG1, kappa)
heavy 1: not shown
heavy 2: QVQLVQSGAEVKKPGASVTVSCKASGYTFTDYEMHWIRQPPGEGLEWIGAIDPKTGDTAYSESFQDRVTLTADKSTSTAYMELSSLTSEDTAVYYCTRFYSYTYWGQGTLVTVSSASTKGPSVFPLAPSSKSTSGGTAALGCLVKDYFPEPVTVSWNSGALTSGVHTFPAVLQSSGLYSLSSVVTVPSSSLGTQTYICNVNHKPSNTKVDKKVEPKSCDKTHTCPPCPAPELLGGPSVFLFPPKPKDTLMISRTPEVTCVVVDVSHEDPEVKFNWYVDGVEVHNAKTKPREEQYNATYRVVSVLTVLHQDWLNGKEYKCKVSNKALRAPIEKTISKAKGQPREPQVYTLPPSRDELTKNQVSLTCLVKGFYPSDIAVEWESNGQPENNYKTTPPVLDSDGSFFLYSKLTVDKSRWQQGNVFSCSVMHEALHNHYTQESLSLSP
light: DIVMTQSPLSLPVTPGEPASISCQASESLVHSNRNTYLHWYLQKPGQSPQLLIYKVSNRFSGVPDRFSGSGSGTDFTLKISRVEAEDVGVYYCSQNTHVPPTFGQGTKVEIERTVAAPSVFIFPPSDEQLKSGTASVVCLLNNFYPREAKVQWKVDNALQSGNSQESVTEQDSKDSTYSLSSTLTLSKADYEKHKVYACEVTHQGLSSPVTKSFNRGEC
notes: H2 S298A and P329R
B5 was tested, and the “FcγRIIIa BINDING ACTIVITY” value [1] was 84%.

B6: GpH7-Kn033/GpH7-Hl033/GpL16-k0 (antibody, human IgG1, kappa)
heavy 1: not shown
heavy 2: not shown
light: DIVMTQSPLSLPVTPGEPASISCQASESLVHSNRNTYLHWYLQKPGQSPQLLIYKVSNRFSGVPDRFSGSGSGTDFTLKISRVEAEDVGVYYCSQNTHVPPTFGQGTKVEIERTVAAPSVFIFPPSDEQLKSGTASVVCLLNNFYPREAKVQWKVDNALQSGNSQESVTEQDSKDSTYSLSSTLTLSKADYEKHKVYACEVTHQGLSSPVTKSFNRGEC
notes: Anti-glypican-3 IgG1 (G1d, C-terminal Gly-Lys removed) with knobs-into-holes alterations only; also called Kn033/Hl033
B6 was tested, and the A/I ratio [2] was 4.9 and the A/I ratio [3] was 6.2.

B7: GpH7-Kn032/GpH7-Hl032/GpL16-k0 (antibody, human IgG1, kappa)
heavy 1: QVQLVQSGAEVKKPGASVTVSCKASGYTFTDYEMHWIRQPPGEGLEWIGAIDPKTGDTAYSESFQDRVTLTADKSTSTAYMELSSLTSEDTAVYYCTRFYSYTYWGQGTLVTVSSASTKGPSVFPLAPSSKSTSGGTAALGCLVKDYFPEPVTVSWNSGALTSGVHTFPAVLQSSGLYSLSSVVTVPSSSLGTQTYICNVNHKPSNTKVDKKVEPKSCDKTHTCPPCPAPELLGGPDVFLFPPKPKDTLMISRTPEVTCVVVDVSHEDPEVKFNWYVDGVEVHNAKTKPREEQYNSTYRVVSVLTVLHQDWLNGKEYKCKVSNKALPLPEEKTISKAKGQPREPQVCTLPPSRDELTKNQVSLWCLVKGFYPSDIAVEWESNGQPENNYKTTPPVLDSDGSFFLYSKLTVDKSRWQQGNVFSCSVMHEALHNHYTQKSLSLSP
heavy 2: QVQLVQSGAEVKKPGASVTVSCKASGYTFTDYEMHWIRQPPGEGLEWIGAIDPKTGDTAYSESFQDRVTLTADKSTSTAYMELSSLTSEDTAVYYCTRFYSYTYWGQGTLVTVSSASTKGPSVFPLAPSSKSTSGGTAALGCLVKDYFPEPVTVSWNSGALTSGVHTFPAVLQSSGLYSLSSVVTVPSSSLGTQTYICNVNHKPSNTKVDKKVEPKSCDKTHTCPPCPAPELLGGPDVFLFPPKPKDTLMISRTPEVTCVVVDVSHEDPEVKFNWYVDGVEVHNAKTKPREEQYNSTYRVVSVLTVLHQDWLNGKEYKCKVSNKALPLPEEKTISKAKGQPREPQVYTLPPSRCELTKNQVSLSCAVKGFYPSDIAVEWESNGQPENNYKTTPPVLDSDGSFFLVSKLTVDKSRWQQGNVFSCSVMHEALHNHYTQKSLSLSP
light: DIVMTQSPLSLPVTPGEPASISCQASESLVHSNRNTYLHWYLQKPGQSPQLLIYKVSNRFSGVPDRFSGSGSGTDFTLKISRVEAEDVGVYYCSQNTHVPPTFGQGTKVEIERTVAAPSVFIFPPSDEQLKSGTASVVCLLNNFYPREAKVQWKVDNALQSGNSQESVTEQDSKDSTYSLSSTLTLSKADYEKHKVYACEVTHQGLSSPVTKSFNRGEC
notes: Anti-glypican-3 IgG1, knobs-into-holes; both H chains carry S239D/A330L/I332E; also called Kn032/Hl032
In the case of B7, the A/I ratio [2] is reported as 1.8 and the A/I ratio [3] is reported as 0.93.
